What all share (type): biochemical
Series [1] deals with Bz-PGGYRAHAG-OH (acyl donor) / H-RAHAK(DNP)-OH (acyl acceptor). The experiment in a line: Maximum product yield of transamidation (Table 7). To be noted: Zinc ions (100 μM): no; two equivalents of acyl acceptor and 250 μM acyl donor. On the procedure:
(§1) Model transamidation reactions were performed in a solution containing 15 to 250 μM acyl donor, 2 eq. of the corresponding acyl acceptor, varying concentrations of trypsin variant, 100 mM HEPES/NaOH pH 7.8, ±0.1 mM ZnC12, 100 mM NaCl, 10 mM CaCl2) at 30° C. Acyl donor and acyl acceptor had the same amino acids in P1′-P3′ position, e.g. Bz-[…]+H-RAHAK-OH or Bz-[…]+H-RKKAK-OH. Variations are indicated. The acyl acceptor could be equipped with a 2,4-Dinitrophenyl group (DNP) at the side chain of the terminal lysine, e.g. H-RAHAK(DNP)-OH or H-RKKAK(DNP)-OH. The reactions were started by the addition of enzyme. To record the time course of product formation and/or for kinetic evaluation of the reaction several aliquots of the reaction mixture were quenched with 25% (v/v) acetic acid at distinct time points within up to 4 hours. The composition of the reaction mixture was analyzed by UPCL with method I or II, depending on the absence (method 1) or presence (method II) of a 2,4-dinitrophenyl group within the acyl acceptor (see example 1). Measurements were performed as duplicates and errors were less than 5%.

Series [2] relates to Bz-PGGYRAHAG-OH / RAHAK-OH (YRAH substrate). The experiment in a line: Enzymatic activity and maximum product yield of Trypsiligase II-library variants, YRAH substrate. To be noted: for AS A[YRAH]/AS A + H[YRAH] / YRAH/YRKH, quotient of max. product yield for YRAH subtrate/YRKH substrate: Table 3; for Pmax vs YRAH (%): Table 3, first column group. On the procedure:
as §1
(§2) On the basis of these investigations the mutated positions of these two variants 2G10 and 1C11 have been combined in a new enzyme library based on trypsin variant Y39H/Y59H/K60E/D189K (Trypsiligase II), so that the variants resulting from this library benefit from both positive effects and are thus further optimized. Accordingly, positions 40, 55, 96, 97, 143, 151, 190, 192, 214, 219 and 221 were randomized in this Trypsiligase II library, while the mutation L99F was fixed because it was present in both Trypsiligase I libraries A and B. Positions 143 and 151 in Trypsiligase I are responsible for zinc complexation and thus convey histidine specificity for the recognition sequence YRH. In Trypsiligase II, this histidine specificity is shifted by positions 39 and 59, resulting in the recognition sequence YRAH. Thus, positions 143 and 151, which are potentially responsible for P2′ position specificity, are available for randomization in the Trypsiligase II library. In addition to the desired effect of increasing the affinity to the substrate/nucleophile, this could also lead to a possible independence of zinc complexation, which would be desirable with regard to the application-oriented modification of recombinant proteins. Using phage display and an ELISA-based screening, the Trypsiligase II variants illustrated in Table 3 and 4 have been identified.

Series [3] concerns H-RAHAK(DNP)-OH (acyl acceptor), acyl donor Bz-PGGYRAHAG-OH. The series is described as follows: KM value of the nucleophilic peptide (acyl acceptor). To be noted: for Km: Zinc ions: no, 250 μM Bz-PGGYRAHAG-OH, varying H-RAHAK(DNP)-OH. On the procedure:
For Trypsiligase II the measurements for KM values of the nucleophilic peptide (acyl acceptor) were carried out in the presence or absence of zinc ions due to its strong zinc ion dependency. In case of variant A2C8 measurements were carried out in the absence of zinc ions.
Transamidation reactions with Trypsiligase II and variant A2C8 were performed in a solution containing 250 μM of the acyl donor Bz-[…]-OH, varying concentrations of the acyl acceptor H-RAHAK(DNP)-OH (0-5000 μM for Trypsiligase II in the absence of zinc ions, 0-1500 μM for Trypsiligase II in the presence of zinc ions, 0-1000 μM for variant A2C8), 0.2-1.5 μM trypsin variant, 100 mM HEPES/NaOH pH 7.8, ±0.1 mM ZnCl2, 100 mM NaCl, 10 mM CaCl2 at 30° C. The reaction was started by the addition of enzyme. For kinetic evaluation of the reaction several aliquots of the reaction mixture were quenched with 25% (v/v) acetic acid at distinct time points within 30 minutes. The composition of the reaction mixture was analyzed by UPCL using method II (see example 1). UV absorption of the 2,4-Dinitrophenyl group (DNP), which is present in the acyl acceptor as well as in the aminolysis product, was detected at 360 nm. To determine the KM value of the nucleophilic peptide the initial rates for the aminolysis reaction were plotted against the corresponding acyl acceptor concentration and fitted to the Michaelis Menten equation. Measurements were performed as duplicates and errors were less than 5%.

The subject of series [4] is Bz-PGGYRKHAG-OH / RKHAK-OH (YRKH substrate). The series is described as follows: Enzymatic activity and maximum product yield of Trypsiligase II-library variants, YRKH substrate. Particulars: for PPmax vs YRAH (%): 100 μM Bz-PGGYR(A/K)HAG-OH, 200 μM R(A/K)HAK-OH, 100 μM ZnCl2, pH 7.8, 30° C. On the procedure: as §1, §2
In series [5] the test system is Bz-PGGYRAHAG-OH (acyl donor). The experiment in a line: Turnover rate of the hydrolysis reaction in the absence of a nucleophilic peptide. Here is the method:
Hydrolysis reactions were performed in a solution containing varying concentrations of the acyl donor Bz-[…]-OH (0-5000 μM for Trypsiligase II, 0-1500 μM for variant A2C8), 2 μM trypsin variant, 100 mM HEPES/NaOH pH 7.8, 100 mM NaCl, 10 mM CaCl2 at 30° C. In case of Trypsiligase II the reactions were performed in the presence of 100 μM ZnCl2. The reaction was started by the addition of enzyme. For kinetic evaluation of the reaction several aliquots of the reaction mixture were quenched with 25% (v/v) acetic acid at distinct time points within 30 minutes. The composition of the reaction mixture was analyzed by UPCL using method I (see example 1). UV absorption of the N-terminal benzoyl-group (Bz-), which is present in the acyl donor as well as in the hydrolysis product, was detected at 254 nm. To determine the turnover rate of the hydrolysis reaction (kcat,HL) the initial rates for the hydrolysis reaction were plotted against the corresponding acyl donor concentration and fitted to the Michaelis Menten equation. Measurements were performed as duplicates and errors were less than 5%.

The mark [6] stands for this setting: 100 μM Bz-PGGYR(A/K)HAG-OH, 200 μM R(A/K)HAK-OH, 100 μM ZnCl2, pH 7.8, 30° C.
Where [7] appears, read: Table 3, group (YRAH), 100 μM ZnCl2.

B1: Trypsiligase II (trypsin variant Y39H/Y59H/K60E/D189K) (protein)
chain: IVGGYTCQENSVPYQVSLNSGHHFCGGSLINDQWVVSAAHCHESRIQVRLGEHNINVLEGNEQFVNAAKIIKHPNFDRKTLNNDIMLIKLSSPVKLNARVATVALPSSCAPAGTQCLISGWGNTLSSGVNEPDLLQCLDAPLLPQADCEASYPGKITDNMVCVGFLEGGKKSCQGDSGGPVVCNGELQGIVSWGYGCALPDNPGVYTKVCNYVDWIQDTIAAN
Consider B1, for which the “product yield (%)” value in series [1] is given as 4.2%. The “AS A[YRAH]/AS A + H[YRAH]” value in series [2] was 0.1; in series [4] (Table 4), 0.0. Moreover, the “YRAH/YRKH, quotient of max. product yield for YRAH subtrate/YRKH substrate” value in series [2] stood at 6.0. In addition, the “Pmax vs YRAH (%)” value in series [2] (setting [6]) is on record as 8.9%. The “AS A/H, quotient of aminolysis/hydrolysis activity” value is reported as 0.3 in series [2] (Table 3, group (YRAH)); 0.3 in series [2] (Table 4); 0.0 in series [4] (Table 3); 0.0 in series [4] (Table 4). Also, the “AS[AL] (mkat/mol), specific aminolysis activity” value in series [2] (setting [7]) turned out to be 2.4 mkat/mol; in series [4] (Table 4, 100 μM ZnCl2), 0.5 mkat/mol. Also, the “AS[HL] (mkat/mol), specific hydrolysis activity” value in series [2] (setting [7]) is reported as 7.8 mkat/mol; in series [4] (Table 4, 100 μM ZnCl2), 16.3 mkat/mol. In addition, the “PPmax vs YRAH (%)” value is recorded as 8.9% in series [2] (Table 4, 100 μM Bz-PGGYR(A/K)HAG-OH, 200 μM R(A/K)HAK-OH, 100 μM ZnCl2, pH 7.8, 30° C.); 1.5% in series [4] (Table 3); 1.5% in series [4] (Table 4). Besides, the “AS[AL] (mkat/moL), specific aminolysis activity” value in series [2] (Table 4, 100 μM ZnCl2) is reported as 2.4 mkat/moL; in series [4] (Table 3, 100 μM ZnCl2), 0.5 mkat/moL. Besides, the “AS[HL] (mkat/moL), specific hydrolysis activity” value is 7.8 mkat/moL in series [2] (Table 4, 100 μM ZnCl2) and 16.3 mkat/moL in series [4] (Table 3, 100 μM ZnCl2). Moreover, the Km in series [3] was determined as 1630 µM. Besides, in series [4] (Table 4), the “YRAH/YRKH, quotient of max. product yield” value was determined as 0.2.

B2: A2C8: Trypsiligase II + H40F, A55A, R96E, K97D, L99F, N143E, E151Y, S190V, Q192A, S214G, G219Q, A221T (protein)
chain: IVGGYTCQENSVPYQVSLNSGHFFCGGSLINDQWVVSAAHCHESRIQVRLGEHNINVLEGNEQFVNAAKIIKHPNFDEDTFNNDIMLIKLSSPVKLNARVATVALPSSCAPAGTQCLISGWGETLSSGVNYPDLLQCLDAPLLPQADCEASYPGKITDNMVCVGFLEGGKKVCAGDSGGPVVCNGELQGIVGWGYQCTLPDNPGVYTKVCNYVDWIQDTIAAN
In the case of B2, the “reduction in the enzyme's hydrolysis activity versus Trypsiligase II (factor)” value in series [5] came to 7. Also, in series [1], the “product yield (%)” value came out at 59.7%. Also, in series [2], the “AS A[YRAH]/AS A + H[YRAH]” value came out at 1.6 and the “YRAH/YRKH, quotient of max. product yield for YRAH subtrate/YRKH substrate” value is recorded as 1.0. Also, the “Pmax vs YRAH (%)” value in series [2] (setting [6]) turned out to be 53.1%. Further, the “AS A/H, quotient of aminolysis/hydrolysis activity” value in series [2] (Table 3, group (YRAH)) is on record as 10.9. Also, in series [2] (setting [7]), the “AS[AL] (mkat/mol), specific aminolysis activity” value was 15.8 mkat/mol and the “AS[HL] (mkat/mol), specific hydrolysis activity” value is reported as 1.5 mkat/mol. In series [3] (Trypsiligase II in the absence of zinc ions), the “improvement of the enzyme affinity for the nucleophilic peptide versus native Trypsiligase II (factor)” value was found to be 92. Also, the “improvement of the enzyme affinity for the nucleophilic peptide versus native Trypsiligase II (factor)” value in series [3] (Trypsiligase II in the presence of zinc ions) stood at 8. The Km in series [3] worked out at 17.6 µM. Moreover, in series [4] (Table 3), the “AS A/H, quotient of aminolysis/hydrolysis activity” value was found to be 6.9 and the “PPmax vs YRAH (%)” value was determined as 51.3%. In series [4] (Table 3, 100 μM ZnCl2), the “AS[AL] (mkat/moL), specific aminolysis activity” value is given as 8.9 mkat/moL and the “AS[HL] (mkat/moL), specific hydrolysis activity” value is on record as 1.3 mkat/moL.

By Km is commonly meant the concentration of substrate that gives half-maximal velocity.
